Reference: paper PMC7755911 (Scientific Reports, 2020)

B1: VHH72 (VHH)
VHH: QVQLQESGGGLVQAGGSLRLSCAASGRTFSEYAMGWFRQAPGKEREFVATISWSGGSTYYTDSVKGRFTISRDNAKNTVYLQMNSLKPDDTAVYYCAAAGLGTVVSEWDYDYDYWGQGTQVTVSS
B2: NIH-CoVnb-112 (VHH)
VHH: DVQLQESGGGLVQPGGSLRLSCAASGLTLDYYAIGWFRQAPGKEREGVSCISSSDGSTYYADSVKGRFTTSRDNAKNTVYLQMNSLKPEDTAVYYCAAVPSTYYSGTYYYTCHPGGMDYWGKGTQVTVSS
notes: also called lead nanobody candidate; anti-SARS-CoV-2 RBD nanobody; source: E. coli BL21 (DE3), periplasm by osmotic shock, purified (HisTrap, Superdex 75)

Columns and labels:
Settings in all cases: both partners purified
[1] = biological target: Biotinylated SARS-CoV-2 S protein RBD with a C-terminal AviTag (SARS-CoV-2, canonical (Wuhan-Hu-1) …, UniProt P0DTC2, biotinylated); assay: BLI
[2] = biological target: SARS-CoV-2 Receptor Binding Domain (RBD) (SARS-CoV-2, UniProt P0DTC2); assay: SPR
[3] = biological target: SARS-CoV-2 RBD (cross-reactivity experiments) (SARS-CoV-2, UniProt P0DTC2); assay: ELISA
[4] = biological target: T1, Horse radish peroxidase conjugated RBD (GenScript SARS-CoV-2 Neutralization Antibody Detection Kit) (SARS-CoV-2, UniProt P0DTC2); assay: ELISA
T1 construct: source: bought: GenScript (kit L00847)

Binder	binding result [1]	Kd [2] [nM]	binding result [3]	binding result [4]
B1	binds	–	–	–
B2	–	2.1	binds	binds
